The values below come from publication PMC9897555 (2023).

This test has as its target Spike protein S1 C-terminal domain 319-674 (Severe acute respiratory syndrome …, UniProt P0DTC2). As to the kind of experiment: flow.

B1: LRRC15 (protein)
chain: YHGCPSECTCSRASQVECTGARIVAVPTPLPWNAMSLQILNTHITELNESPFLNISALIALRIEKNELSRITPGAFRNLGSLRYLSLANNKLQVLPIGLFQGLDSLESLLLSSNQLLQIQPAHFSQCSNLKELQLHGNHLEYIPDGAFDHLVGLTKLNLGKNSLTHISPRVFQHLGNLQVLRLYENRLTDIPMGTFDGLVNLQELALQQNQIGLLSPGLFHNNHNLQRLYLSNNHISQLPPSVFMQLPQLNRLTLFGNSLKELSPGIFGPMPNLRELWLYDNHISSLPDNVFSNLRQLQVLILSRNQISFISPGAFNGLTELRELSLHTNALQDLDGNVFRMLANLQNISLQNNRLRQLPGNIFANVNGLMAIQLQNNQLENLPLGIFDHLGKLCELRLYDNPWRCDSDILPLRNWLLLNQPRLGTDTVPVCFSPANVRGQSLIIINVNVAVPSVHVPEVPSYPETPWYPDTPSYPDTTSVSSTTELTSPVEDYTDLTTIQVTDDRSVWGMTQAQSG
Turning to B1, the Kd (commonly the concentration at which binding is half-saturated) is approximately 260 nM.
